Results as given in patent US20100017897A1 (CHILDREN S HOSPITAL OF PHILADELPHIA, published 2010).

T1: cytosolic domain of human PRRG4 (human, UniProt Q9BZD6 139-226)
T1 construct: Expressed in insect cells; also called cytosolic hPPRG4; cystosolic domain of hPPRG4; not shown: purified by HA and histidine columns, so HA and His tags are implied
T1 sequence: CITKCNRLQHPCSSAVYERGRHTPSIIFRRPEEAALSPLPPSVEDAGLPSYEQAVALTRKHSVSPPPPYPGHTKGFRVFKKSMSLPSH


target: T1, cytosolic domain of human PRRG4; test: SH3 domain array probed with purified cytosolic hPRRG4; listed as a hit
Procedure: (§1) The cystosolic domain of hPPRG4 was expressed in insect cells and proteins were purified by HA and histidine columns. Interactions of cytosolic hPPRG4 with different SH3 and WW domains were tested by incubating purified hPRRG4 proteins with arrays containing SH3 and WW domains of several proteins. After incubation, PRRG4 bound to several proteins, most of which are non-receptor tyrosine kinases or scaffolding proteins. These newly identified binding partners provide valuable therapeutic targets for the isolation and characterization of therapeutic agents that impact PRRG4 mediated oncogenesis.

Binder	binding result
Grb2-related adaptor protein, SH3 Domain #2 (other, UniProt Q13588 158-217, looked up, domain: SH3 Domain #2; Array spot; also called Grap-D2) PGACFAQAQFDFSAQDPSQLSFRRGDIIEVLERPDPHWWRGRSCGRVGFFPRSYVQPVHL	binds
Tyrosine-protein kinase Tec (other, UniProt P42680 179-239, looked up, domain: SH3 domain; Array spot) NSEEIVVAMYDFQAAEGHDLRLERGQEYLILEKNDVHWWRARDKYGNEGYIPSNYVTGKKS	binds
Osteoclast stimulating factor 1 (other, UniProt Q92882 12-71, looked up, domain: SH3 domain; Array spot; also called OSF) GQVKVFRALYTFEPRTPDELYFEEGDIIYITDMSDTNWWKGTSKGRTGLIPSNYVAEQAE	binds
Lyn, Src family of non-receptor protein Tyrosine kinase (other, UniProt P07948 63-123, looked up, domain: SH3 domain; Array spot) EQGDIVVALYPYDGIHPDDLSFKKGEKMKVLEEHGEWWKAKSLLTKKEGFIPSNYVAKLNT	binds
Nebulette (other, UniProt O76041 954-1014, looked up, domain: SH3 domain; Array spot; also called NEBL) PNLRTYRAMYDYSAQDEDEVSFRDGDYIVNVQPIDDGWMYGTVQRTGRTGMLPANYIEFVN	binds
PAK-interacting exchange factor beta (other, UniProt Q14155 184-243, looked up, domain: SH3 domain; Array spot; also called Y124) NNQLVVRAKFNFQQTNEDELSFSKGDVIHVTRVEEGGWWEGTLNGRTGWFPSNYVREVKA	binds
Abelson-related protein; Arg tyrosine kinase (other, UniProt P42684 107-167, looked up, domain: SH3 domain; Array spot; also called Abl2) SDPNLFVALYDFVASGDNTLSITKGEKLRVLGYNQNGEWSEVRSKNGQGWVPSNYITPVNS	binds
Bruton Tyrosine Kinase (other, UniProt Q06187 214-274, looked up, domain: SH3 domain; Array spot; also called BTK) SELKKVVALYDYMPMNANDLQLRKGDEYFILEESNLPWWRARDKNGQEGYIPSNYVTEAED	binds
Peroxisomal membrane protein PEX13 (other, UniProt Q92968 272-336, looked up, domain: SH3 domain; Array spot; also called PEXD) DDHVVARAEYDFAAVSEEEISFRAGDMLNLALKEQQPKVRGWLLASLDGQTTGLIPANYVKILGK	binds

target: T1, cytosolic domain of human PRRG4; test: WW domain array probed with purified cytosolic hPRRG4; listed as a hit
Description: PRRG4 has one WW-binding domain in its cytosolic domain. WW domains are involved in several cellular processes including cell cycle control and cell proliferation. In order to analyze the possible interactions of PRRG4 with different WW motif containing proteins, the cytosolic domain of human PRRG4 was purified by our group and used in TranSignal WW Domain Arrays. This array contains WW domains from 67 different human proteins and each WW domain is spotted in duplicate. […] Among these proteins Yes-Associated Protein1 (YAP 1) and Nedd4 are particularly important as they are known to play essential roles in several cellular activities including cell proliferation. FIGS. 9 and 10 are tables that show the proteins that are used on the array.
as §1

Binder	binding result
LPLPPGWEMTFTATGQRYFLNHIEKITTWQDPRK (other, human, UniProt Q9GZV5 124-157, looked up, domain: WW domain; Array spot) [transcriptional co-activator with PDZ-binding motif (TAZ)]	binds
